This note sets out measurements from patent US20180305695, “DNA APTAMER THAT BINDS TO vWF” (TAGCYX BIOTECHNOLOGIES, published 2018).

The target in the data set is von Willebrand factor A1 domain (Homo sapiens, UniProt P04275 SEQ:1277-1453). As to the kind of experiment: EMSA; positive control, gel 4 C; substantially no binding with gel at 25-37 C. The conditions noted are these: tags: U-Protein Express V003; label: biotin (SPR). How it is done:
The binding ability of the synthesized DNA aptamers was analyzed via gel shift assay. Specifically, the DNA aptamers (100 nM) and the vWF A1 domain (100 nM, V003, U-Protein) were suspended in 20 μl of a reaction solution (1×PBS, 0.005% Nonidet P-40), and incubated at 37° C. for 30 minutes. Thereafter, 25% glycerol containing bromophenol blue was added to be a final concentration of glycerol to 5% therein, the resultant was subjected to 8% nondenaturing polyacrylamide gel electrophoresis at 4° C., and the DNA aptamers bound to the vWF A1 domain were separated from the free DNA aptamers. Thereafter, the DNA aptamers were stained with SYBR Gold (Thermo Fisher Scientific) diluted 1/20,000-fold with the 1×TBE solution and detected by a bioimage analyzer (LAS-4000, Fujifilm Corporation). The percentage of gel shifting was determined by dividing the amount of the complex by the amount of the free form and the complex, each deduced based on a band and expressing the determined value in a percentage figure.
Gel shift assay was carried out in the same manner as in Example 3, except that electrophoresis was carried out at 4° C. and 300 V, 25° C. and 40 W, and 37° C. and 40 W.
And the activity of vWF2-DsAA (o) and vWF2-AADs (p) were decreased in comparison with vWF2-DsDsDs (m).
Background: In EMSA bound probe runs differently from free probe, usually more slowly.

B1: ARC1172 (ssDNA)
DNA: GGCGTGCAGTGCCTTCGGCCGTGCGGTGCCTCCGTCACGCC
With B1, the binding result is “binds”.
